This series deals with T1, CC(=O)C(=O)O.
T1 construct: full length, TTG start changed to ATG, untagged, expressed in S. cerevisiae GRF18U; crude cell extract; homotetramer
The series can be described thus: cells, lysate or membranes. In kind it is biochemical, Lactiplantibacillus plantarum. As to conditions: NADH, acetate buffer pH 5.6, 25 °C, no fructose 1,6-diphosphate, Table 2 prints 1,50.

Usually Km stands for the substrate concentration at which the rate is half of its maximum.

As for “L. plantarum LDH (LpLDH, plLDH) (Lactiplantibacillus plantarum WCFS1; C302S/H54D)”, the Km was found to be 1504 µM.
